This test addresses T1, murine adipose triglyceride lipase, Strep fusion (Strep-mATGL) (mouse) (UniProt Q8BJ56).
T1 sequence: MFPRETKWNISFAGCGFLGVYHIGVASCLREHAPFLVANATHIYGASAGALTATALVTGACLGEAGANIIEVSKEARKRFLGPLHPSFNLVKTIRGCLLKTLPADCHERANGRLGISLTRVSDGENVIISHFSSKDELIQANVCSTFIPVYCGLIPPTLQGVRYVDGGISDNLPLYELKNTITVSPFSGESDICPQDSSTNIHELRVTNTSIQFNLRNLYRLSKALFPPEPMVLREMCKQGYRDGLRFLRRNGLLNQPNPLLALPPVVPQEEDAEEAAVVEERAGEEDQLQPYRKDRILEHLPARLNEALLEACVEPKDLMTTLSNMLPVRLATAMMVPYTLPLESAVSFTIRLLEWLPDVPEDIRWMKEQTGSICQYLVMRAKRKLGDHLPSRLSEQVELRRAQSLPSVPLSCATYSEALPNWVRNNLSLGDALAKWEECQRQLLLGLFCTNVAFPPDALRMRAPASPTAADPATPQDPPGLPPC

B1: human G0/G1 switch gene 2 protein, full length (hG0S2) (natural protein)
chain: METVQELIPLAKEMMAQKRKGKMVKLYVLGSVLALFGVVLGLMETVCSPFTAARRLRDQEAAVAELQAALERQALQKQALQEKGKQQDTVLGGRALSNRQHAS
The molecule B1 returned an IC50 of inhibition of CGI-58-stimulated mATGL TG hydrolase activity, dose-response with full-length hG0S2 of 0.019 µM.

For the origin of these results see PMC4239610, “A Peptide Derived from G0/G1 Switch Gene 2 Acts as Noncompetitive Inhibitor of Adipose Triglyceride Lipase” (The Journal of Biological Chemistry, 2014).
